Target: T1, SRSF2 (UniProt Q01130 1-221)
T1 sequence: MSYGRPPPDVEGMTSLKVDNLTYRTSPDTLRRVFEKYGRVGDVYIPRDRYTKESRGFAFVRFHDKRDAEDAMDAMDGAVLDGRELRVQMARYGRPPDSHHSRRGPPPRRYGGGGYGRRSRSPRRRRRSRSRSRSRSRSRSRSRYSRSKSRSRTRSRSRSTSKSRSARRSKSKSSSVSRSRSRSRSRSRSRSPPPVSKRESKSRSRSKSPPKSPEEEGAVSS
Assay: EMSA

Binder: GCACGUAUUC (ssRNA) [Mut-SRSF2 RNA (CGUA)]
- binding result: no binding

— article PMC4535357
